# Changes are numbered by the printed parent chain. Names may count otherwise. “And” between values parts separate entries of the source, which are not always exact repeats. Identical values can stand only once. Like-named read-outs stand apart in the source and are kept apart here.
# T1: human CXCR2 (human, UniProt P25025 1-360)
# T1 sequence: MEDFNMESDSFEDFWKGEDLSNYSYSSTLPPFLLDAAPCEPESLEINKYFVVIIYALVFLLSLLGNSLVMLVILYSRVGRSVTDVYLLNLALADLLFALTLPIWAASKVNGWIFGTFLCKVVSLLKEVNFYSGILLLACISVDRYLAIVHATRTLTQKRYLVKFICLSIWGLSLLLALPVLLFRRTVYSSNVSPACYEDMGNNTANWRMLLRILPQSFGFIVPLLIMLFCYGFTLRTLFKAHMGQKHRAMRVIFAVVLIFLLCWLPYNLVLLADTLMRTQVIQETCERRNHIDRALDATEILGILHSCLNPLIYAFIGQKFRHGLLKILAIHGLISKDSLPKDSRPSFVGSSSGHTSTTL
# T2: human CXCR1 (human, UniProt P25024 1-350)
# T2 sequence: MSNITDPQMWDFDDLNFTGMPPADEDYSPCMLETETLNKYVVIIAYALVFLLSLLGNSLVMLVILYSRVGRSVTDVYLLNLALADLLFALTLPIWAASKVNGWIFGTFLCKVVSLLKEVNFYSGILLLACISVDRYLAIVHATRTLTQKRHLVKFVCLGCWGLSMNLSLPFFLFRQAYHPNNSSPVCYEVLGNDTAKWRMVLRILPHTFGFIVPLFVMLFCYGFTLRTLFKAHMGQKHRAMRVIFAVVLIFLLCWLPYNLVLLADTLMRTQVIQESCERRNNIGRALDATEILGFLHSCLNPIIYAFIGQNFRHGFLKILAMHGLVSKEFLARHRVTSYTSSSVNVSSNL
# T3: cynomolgus monkey CXCR2 (cynomolgus monkey, UniProt Q28519 3-353 (rhesus entry))
# T3 construct: native on cynomolgus blood cells in the entries below; also called cynomolgus CXCR2
# T3 chain: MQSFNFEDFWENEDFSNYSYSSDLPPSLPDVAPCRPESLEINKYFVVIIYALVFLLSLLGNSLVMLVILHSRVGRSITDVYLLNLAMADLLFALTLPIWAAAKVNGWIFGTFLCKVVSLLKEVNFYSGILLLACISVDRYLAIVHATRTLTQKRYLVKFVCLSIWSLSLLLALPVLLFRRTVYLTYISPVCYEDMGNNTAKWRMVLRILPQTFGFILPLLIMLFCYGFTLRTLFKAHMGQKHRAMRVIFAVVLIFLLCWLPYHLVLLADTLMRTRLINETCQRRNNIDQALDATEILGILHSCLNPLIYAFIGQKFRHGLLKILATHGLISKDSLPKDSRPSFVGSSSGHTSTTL
# B1: BKO-4A8 (antibody, human IgG4 S228P, lambda)
# heavy: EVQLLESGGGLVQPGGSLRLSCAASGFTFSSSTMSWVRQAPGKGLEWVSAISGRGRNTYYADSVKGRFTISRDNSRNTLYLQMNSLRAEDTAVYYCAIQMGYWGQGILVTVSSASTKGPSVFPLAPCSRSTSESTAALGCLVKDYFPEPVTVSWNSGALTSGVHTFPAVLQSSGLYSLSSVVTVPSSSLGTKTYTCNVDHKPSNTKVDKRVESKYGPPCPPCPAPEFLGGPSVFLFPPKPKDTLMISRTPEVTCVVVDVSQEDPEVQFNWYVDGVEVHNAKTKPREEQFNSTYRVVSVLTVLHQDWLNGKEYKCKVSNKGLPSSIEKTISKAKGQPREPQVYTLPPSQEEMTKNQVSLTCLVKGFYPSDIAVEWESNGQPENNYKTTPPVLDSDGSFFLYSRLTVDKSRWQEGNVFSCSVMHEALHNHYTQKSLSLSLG
# light: QSALTQPPSASGSPGQSVTISCIGTSSDVGGYNYVSWYQQHPDKAPKLMIYEVNKRPSGVPDRFSGSKSGNTASLTVSGLQAEDEADYYCSSYAGNNNFGVFGGGTKLTVLGQPKAAPSVTLFPPSSEELQANKATLVCLISDFYPGAVTVAWKADSSPVKAGVETTTPSKQSNNKYAASSYLSLTPEQWKSHRSYSCQVTHEGSTVEKTVAPTECS
# notes: recombinant human IgG4 S228P, lambda; also called BKO-4A8 IgG4; parental BKO-4A8
# B2: BKO-4A8 combinatorial variant 102c (antibody, human IgG4 S228P, lambda, V domains shown)
# VH: EVQLLESGGGLVQPGGSLRLSCAASGFTFSSSTQSWVRQPPGKGLEWVSAISGRGRSTYYADSVKGRFTISRDNSKNTLYLQMNSLRAEDTAVYYCAIQEGYWGQGILVTVSS
# VL: QSALTQPPSASGSPGQSVTISCIGTSSDVGGYNYVSWYQQHPGKAPKLMIYEVSKRPSGVPDRFSGSKSGNTASLTVSGLQAEDEADYYCSSYAGSNNFGVFGGGTKLTVLG
# notes: IgG4 S228P, lambda
# B3: BKO-4A8 combinatorial variant 106c (antibody, human IgG4 S228P, lambda, V domains shown)
# VH: B2 VH with R54S, R56G
# VL: B2 VL
# notes: IgG4 S228P, lambda
# B4: BKO-4A8-103c (antibody, human IgG4 S228P, lambda, V domains shown)
# VH: B2 VH with R54S, R56G, E100M
# VL: B2 VL
# notes: IgG4 S228P, lambda
# B5: BKO-4A8-104c (antibody, human IgG4 S228P, lambda, V domains shown)
# VH: B2 VH with R54S, R56G, E100K
# VL: B2 VL
# notes: IgG4 S228P, lambda
# B6: BKO-4A8-105c (antibody, human IgG4 S228P, lambda, V domains shown)
# VH: B2 VH with R54S, R56G, E100A
# VL: B2 VL
# notes: IgG4 S228P, lambda
# B7: BKO-8B6 (antibody, human IgG4 S228P, lambda, V domains shown)
# VH: EVQLLESGGGLVQPGGSLRLSCAASGFTFSSNAMSWVRQAPGKGLEWVSAISNSGRSTYYADSVKGRFTISRDSSKNTLYLLMNSLRAEDSAVYYCAIKLGYWGQGSLVTVSS
# VL: B2 VL with I23T, I50M, N97D, K107R
# notes: recombinant human IgG4 S228P, lambda
# B8: BKO-8C4 (antibody, human IgG4 S228P, lambda, V domains shown)
# VH: QLQLQESGPGLVKPSETLSLTCTVSGGSIRTSSYYWGWIRQPPGKGLEYIGSIYYSGTTYYNPSLKSRVTMSVDTSKNQFSLKLSSVTAADTAVYYCARHGRVREVPPFDYWGQGTLVTVSS
# VL: SSELTQDPAVSVALGQTVRITCQGDSLRYYYASWYQQKPGQAPVLVIYDENSRPSGIPDRFSGSSSGNTASLRITGTQAEDEADYYCNSRDTSGNHWAFGGGTKLTVLG
# notes: as for B7
# B9: BKO-8G3_b (antibody, human IgG4 S228P, lambda, V domains shown)
# VH: B7 VH with N32Y, S52T, N53G, R56G, S74K, L82Q, S91T, K99R
# VL: B2 VL with I23T, A45V, M49V
# notes: as for B7
# B10: BKO-9C3_a (antibody, human IgG4 S228P, lambda, V domains shown)
# VH: B7 VH with L4V, S30R, N32Y, N53G, R56G, S74K, L82Q, S91T, K99Q, S107T
# VL: B2 VL with T19I, I23T, A45V, S91T
# notes: as for B7
# B11: BKO-9A8 (antibody, human IgG4 S228P, lambda, V domains shown)
# VH: EVQLLESGGGLVQTGGSLRLSCAASGFTFSSNTMSWVRQAPGKGLEWVSAISGSGGRTYYVDSVKGRFTISRDNSKNTLYLQMHSLRAEDTAVYYCAIQLGSWGQGILVTVSS
# VL: B2 VL with I23T, G31A, S54T, S96N
# notes: as for B7
# B12: BKO-10G10 (antibody, human IgG4 S228P, lambda, V domains shown)
# VH: QLQLQESGPGLVKPSETLSLTCTVSGGSIRRSSYYWGWIRQPPGKGLEWIGSFYNSGNTYYKPSLKSRVAISVDTPKNQFSLKLSSVTAADTAVYYCARGYSSGGFDPWGQGTLVTVSS
# VL: QSALTQPASVSGSPGQSITISCTGTSSDVGGYNYVSWCQQHPGKAPKIMIFDVSNRPSGVSNRFSGSKSGNTASLTISGLQAEDEADYYCSSYTSSSTWVFGGGTRLTVLG
# notes: as for B7
# Columns and labels:
# human CXCR2 [1] = target: T1, human CXCR2; assay: cell-based or functional assay
# human CXCR2 [2] = target: T1, human CXCR2; assay: cell-based or functional assay; remark: listed apart in the source
# human CXCR1 = target: T2, human CXCR1; assay: flow cytometry, transfected Expi293F cells
# Procedure: (§1) Harvested cells were resuspended in FACS buffer (1×PBS+0.5% (w/v) bovine serum albumin (BSA)+2 mM EDTA pH 7.2). Approximately 2×10⁵ cells were added per well in a 96-well round-bottomed plate. Cells were pelleted by centrifugation at 400 g for 5 mins at 4° C. and supernatants discarded. 25 μL of each test antibody or control antibody was added to the cells and incubated for 30 minutes at 4° C. Cells were washed twice in 100 μL FACS buffer followed by centrifugation at 400 g for 5 mins at 4° C.
# (§2) For detection, 50 μL of secondary antibody (Table 2) was added to relevant samples. Commercially available antibodies that bound to transfected CXCR family members were used as positive controls to ensure that the cells were expressing the receptors. Cells were washed twice in 200 μL of FACS buffer followed by centrifugation at 400 g for 5 mins at 4° C. Before sample acquisition, cells were resuspended in 100 μL of FACS buffer. Samples were acquired using the high throughput sampler on a FACSCanto™ II cytometer (Beckton-Dickinson).
# (§3) These antibody variable regions were then generated by gene synthesis and subcloned into mammalian expression vectors as described in General Methods. Antibodies were produced by co-expression of heavy and light chain plasmids in Expi293F™ cells and purified by protein A column chromatography as described in General Methods. Where several heavy and/or light chains were identified from the same hybridoma cells, each heavy chain was paired with each light chain and the resulting antibodies given suffix a, b, c, etc. Purified antibodies were desalted into Sorensen's PBS pH 5.8 and tested by flow cytometry for binding to Expi293F™ cells transfected with human CXCR2 or human CXCR1 and mock transfected Expi293F™ cells.
# human CXCR2 [3] = target: T1, human CXCR2; assay: flow cytometry, CXCR2-transfected Expi293F cells
# human CXCR2 [4] = target: T1, human CXCR2; assay: flow cytometry, CXCR2-transfected Expi293F cells; remark: listed apart in the source
# Procedure: as §1, §2
# A further six heavy chain combinational variants comprising four or more amino acid substitutions were produced as provided in Table 12. […] Each heavy chain was co-expressed with light chain c (SEQ ID NO:110) to produce an antibody variant. Antibodies were purified and tested for CXCR2 binding activity as described in General Methods.
# cynomolgus monkey CXCR2 = target: T3, cynomolgus monkey CXCR2; assay: flow cytometry, native CXCR2 on cynomolgus PBMC preparations
# Procedure: Whole human buffy coat, PBMC enriched fractions prepared from human peripheral blood buffy coat or cynomolgus monkey whole blood was used for analysis of antibody binding activity by flow cytometry. Briefly, blood was untreated or diluted 1:1 in sterile filtered room temperature phosphate-buffered saline (PBS). 30 mL samples were layered over 15 mL Lymphoprep™ (Stem Cell Technologies, cat #07851). Peripheral blood mononuclear cells (PBMC) were enriched by room temperature centrifugation at 700 g for 30 minutes with no braking. The PBMC layer was isolated and cells washed in PBS containing 2 mM EDTA with low speed centrifugation at 200 g, to remove platelet contamination. Whole blood or PBMC enriched cell fractions were resuspended in red blood cell lysing solution (BioLegend, 420301). Viable cell counts were determined and cells resuspended at 1×10⁷ cells per mL in FACS buffer (1×PBS+0.5% (w/v) BSA+2 mM EDTA pH 7.2).
# Flow cytometry binding assays using whole blood or PBMC enriched preparations: Binding assays to detect CXCR2 on blood neutrophil populations using test antibodies were performed essentially as described for assays using transiently transfected Expi293F™ cells. […] Matched isotype control antibodies were included for comparison. […] Neutrophil populations were identified by characteristic granularity and size, and positive binding of commercially available antibodies against CD10 (Biolegend, clone Hl10a, catalogue number 312204). Cells were washed and fixed (BioLegend Fixation buffer, 420801) prior to analysis. The level of fluorescence on the cell surface was measured by flow cytometry.
# human CXCR2 [5] = target: T1, human CXCR2; assay: flow cytometry, transfected Expi293F cells
# Procedure: as §1, §2, §3
"CXCL1 IC50, Tango assay (human CXCR2 [2]) [nM]","CXCL8 IC50, Tango assay (human CXCR2 [2]) [nM]",binding result (human CXCR1),EC50 (human CXCR2 [4]),Max binding (MFI Percent of 4A8 WT) (human CXCR2 [4]) [%],Max binding (MFI) (human CXCR2 [4]),binding result (human CXCR2 [5]),other results,Binder
94,0.66,no binding,1.58 nM and 3.82 nM,,,,"IC50, CXCL1, Tango assay (human CXCR2 [1]): 0.177 nM; IC50, CXCL8, Tango assay (human CXCR2 [1]): 0.112 nM; EC50 (human CXCR2 [3]): 0.4 nM and 0.5 nM and 0.6 nM and 0.9 nM; binding result (cynomolgus monkey CXCR2): binds",B1
,,,8.7 nM,53,33000,,,B2
,,,> 100 nM,,11600,,,B3
2.4,1.25,,5.15 nM,72,44400,,CXCL1 Fold Improvement over 4A8 WT (human CXCR2 [2]): 2.55 fold; CXCL8 Fold Improvement over 4A8 WT (human CXCR2 [2]): 0.53 fold,B4
2.17,0.75,,6.45 nM,54,45100,,CXCL1 Fold Improvement over 4A8 WT (human CXCR2 [2]): 0.43 fold; CXCL8 Fold Improvement over 4A8 WT (human CXCR2 [2]): 0.88 fold,B5
4,1.85,,5.73 nM,52,42700,,CXCL1 Fold Improvement over 4A8 WT (human CXCR2 [2]): 0.24 fold; CXCL8 Fold Improvement over 4A8 WT (human CXCR2 [2]): 0.36 fold,B6
,,no binding,,,,binds,,B7
,,no binding,,,,binds,,B8
,,no binding,,,,binds,binding result (cynomolgus monkey CXCR2): binds,B9
,,no binding,,,,binds,binding result (cynomolgus monkey CXCR2): binds,B10
,,no binding,,,,binds,,B11
,,no binding,,,,binds,,B12
